This note sets out measurements from patent publication US20100081200A1, “FORMULATIONS AND METHODS FOR CULTURING STEM CELLS” (priority 2007, published 2010).

One experiment relates to embryonic stem cells. Nature of the experiment: Effect of lithium chloride on embryonic stem cells. The experiment is classed as cell-based. The source says: Thus, in some specific embodiments, the serum replacement is devoid lithium chloride.
The test system of experiment [1] is embryonic stem cell colonies. Nature of the experiment: Effect of fetuin and α-fetoprotein on growth rate and size of embryonic stem cell colonies. In kind it is cell-based. The settings on record: human serum albumin 10 mg/ml. On the procedure: All formulations shown contained human serum albumin at a concentration of 10 mg/ml.
The composition of the formulation according to this embodiment of the present invention was further optimized as described above in Table 2.

With `[Cl-].[Li+]` [lithium chloride], the “effect on embryonic stem cells” value in the experiment on embryonic stem cells is recorded as “may be harmful for embryonic stem cells resulting in differentiation”.

B1: A: α-fetoprotein, commercially available fetal carrier protein (protein, UniProt P02771 19-609, looked up)
Alpha-fetoprotein: RTLHRNEYGIASILDSYQCTAEISLADLATIFFAQFVQEATYKEVSKMVKDALTAIEKPTGDEQSSGCLENQLPAFLEELCHEKEILEKYGHSDCCSQSEEGRHNCFLAHKKPTPASIPLFQVPEPVTSCEAYEEDRETFMNKFIYEIARRHPFLYAPTILLWAARYDKIIPSCCKAENAVECFQTKAATVTKELRESSLLNQHACAVMKNFGTRTFQAITVTKLSQKFTKVNFTEIQKLVLDVAHVHEHCCRGDVLDCLQDGEKIMSYICSQQDTLSNKITECCKLTTLERGQCIIHAENDEKPEGLSPNLNRFLGDRDFNQFSSGEKNIFLASFVHEYSRRHPQLAVSVILRVAKGYQELLEKCFQTENPLECQDKGEEELQKYIQESQALAKRSCGLFQKLGEYYLQNAFLVAYTKKAPQLTSSELMAITRKMAATAATCCQLSEDKLLACGEGAADIIIGHLCIRHEMTPVNPGVGQCCTSSYANRRPCFSSLVVDETYVPPAFSDDKFIFHKDLCQAQGVALQTMKQEFLINLVKQKPQITEEQLEAVIADFSGLLEKCCQGQEQEVCFAEEGQKLISKTRAALGV
Turning to B1, in experiment [1], the “concentration that increased colony size and growth rate the most” value came to 0.05 mg/mL.

B2: F: Fetuin, commercially available fetal carrier protein (protein, UniProt P12763 19-359, looked up)
Alpha-2-HS-glycoprotein: IPLDPVAGYKEPACDDPDTEQAALAAVDYINKHLPRGYKHTLNQIDSVKVWPRRPTGEVYDIEIDTLETTCHVLDPTPLANCSVRQQTQHAVEGDCDIHVLKQDGQFSVLFTKCDSSPDSAEDVRKLCPDCPLLAPLNDSRVVHAVEVALATFNAESNGSYLQLVEISRAQFVPLPVSVSVEFAVAATDCIAKEVVDPTKCNLLAEKQYGFCKGSVIQKALGGEDVRVTCTLFQTQPVIPQPQPDGAEAEAPSAVPDAAGPTPSAAGPPVASVVVGPSVVAVPLPLHRAHYDLRHTFSGVASVESSSGEAFHVGKTPIVGQPSIPGGPVRLCPGRIRYFKI
With B2, the “concentration that increased colony size and growth rate the most” value in experiment [1] amounted to 0.1 mg/mL.
